The test system of the data set is Saccharomyces cerevisiae. Kind of data set: transcriptional activation domain activity (GFP:mCherry ratio, weighted mean of sorted bins, harmonized to initial dataset scale) (arbitrary fluorescence ratio units); higher = stronger transcriptional activation. The following applies: beta-estradiol 1 µM; induction time 4 h. In outline:
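The activation activity of each tile is the read-weighted mean of bin median fluorescence, averaged across its barcodes and mapped linearly onto the scale of the initial dataset. Tiles were fused to an estradiol-inducible synthetic transcription factor, barcoded, and integrated at URA3 in yeast diploids carrying a GFP reporter. Induction used 1 uM beta-estradiol in SC for 4 hours at 30 °C, after which cells were sorted into 8 GFP:mCherry bins, and any tile with fewer than 50 reads was dropped.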

As to “MREAERAREEQEQERRRVEKVREREREREQERLERERLKAERERAAAAAVVAA”, the “transcriptional activation domain activity” value came out at 40100.

For “MREDITQIDLITFYLCIFLSITVFVELIILCWIRILSIFNVCLFALLLCQLVY”, the “transcriptional activation domain activity” value was found to be 33700. As for “MREGWVWISEYRVLCLYFFFFLFLFFSNSFFFSPIYLFLFFTLFLVCLLCFRP”, the “transcriptional activation domain activity” value was 53400.

Turning to “MREKDNDETTTGIFFLFLFLDKILLLFAWYLPWSSSQFLRLLFSLVLFWAVTL”, the “transcriptional activation domain activity” value turned out to be 45300. Under “MRELFIFILFLFHFYPYSYFNYYIFFSFSYFLFRYFVSIIIIFFLIQVVFGLV” stands 101000; under “MREYIRFYFDTLHSSRVFVVWLLTHVLFLEKDRLKAMFAKDEFNGIEEIKMRY”, 24900. “MRFLFFLLLFLFFFPPPLPPISSLQGCFFVIFFFGFFIFSSFLLFYAVFFFIV”: the “transcriptional activation domain activity” value is 39000. “MRFLLLSFPCNHHPSLSLYISSISLFLLRPFIFLSLLFFCIVSYYLGVCVVWG”: the “transcriptional activation domain activity” value is 53500. As for “MRFLLTIIHFFLTLFLSYTLFLSVILLFSRLYYFLSIIRSSYAIIWIFFLFIL”, the “transcriptional activation domain activity” value amounted to 52000. For the sequence “MRFPPLLFSFFLFFLFFFHLFLFLFHNLFFFYQSFFSSQPLFSFSLSFLSSSL”, the “transcriptional activation domain activity” value stood at 42800. Regarding “MRFSSLLFLFCLFHFPLFFFFFSSFFNFCLPILFLPNLFSPFLFPFSPHLFFF”, the “transcriptional activation domain activity” value stood at 51900.

“MRFWFLYLFLLFGIGWVGLALLYYYRIFCLFLCNIRILFLLVCFISTHSIIYS”: the “transcriptional activation domain activity” value turned out to be 46200. Then “MRGCLVAGITLLTRFVVASCGRRNVGRMRHRPRGQPLPSSLMLLVVICREFRK”, with 66500; and “MRGFFWQILLQTCLLPIVTCTLLPTPLMPFCALQHTPLSNLFLLLSWLYFLPY”, with 48400; and “MRGFYYYLFCLFAEFGIHGVLFHGGFFLLLFFFLSSSLWLALTRFRWPFPFVF”, with 57800. Under “MRGLCRSLKLCKLFVTMFDGWMMLFSFFFFFLFLLFFYYYSCCSDGFLLCFFL” stands 42500; under “MRGTSLFLFYFISFLSLFLFQLLHFFFFSYFLFRYFVSIIIIFFLIQVVFGLV”, 53200; under “MRGVCSFCSFCSFSFLFLFLFLFLFFSFFSFFSFCFFLFFPSFLSVSLSFLLS”, 71100.

As to “MRHEHGGMAFNVFFLWTFMYLCLWLRVNVLCFMSISLFLMSLFFLFFLVWLSG”, the “transcriptional activation domain activity” value amounted to 51200.

Turning to “MRHVASRWPILPRLLVPIFHLLAWFLIPVGRLCIRSFPLIFSVVCFLCAFSSC”, the “transcriptional activation domain activity” value amounted to 51100. In the case of “MRIAIYWRSFSVSTSFFFLPGYSFFLSNWVLFLVYFYDTGCGVCFLPFIMIFF”, the “transcriptional activation domain activity” value came to 72700. For “MRIFVFFSLLFLFFFCYMYYICLLLFCTLQTYIFILYHIIPYSILIYIYYISN”, the “transcriptional activation domain activity” value was found to be 59200. On to “MRIIIFMSLLLLKIIMILLLLLLRIKFNWFSFFSILKMLLSMKIMMLFLFLLL”, for which the “transcriptional activation domain activity” value was 35900. Take “MRILFTICRYFPLLFYPFYLWAWVPVHSKELCEKLICPFGQYLCILILLCACW”: the “transcriptional activation domain activity” value amounted to 56600. Under “MRILGCVVNAHLKQMIHRNSLLIIPECPRMFWLGCQTRCVVLGEWIGLHANRF” stands 69300; under “MRILQFFSFLYLLLYFSRTLLIVIYTLVILLLNQLLVFFKFLSLFFAFFWYVF”, 41400; under “MRIRYEMSWGFLLSFLLSNGRRKIDHGTSSLRMTLGFLIAHRVYMMIILNFYT”, 47200. Regarding “MRKFLFQSFDILYLLIFLSFFFILSLFFFILIIFGSSPFIYFIFYFNHFFFFD”, the “transcriptional activation domain activity” value was determined as 26900. Consider “MRKLQVRSWSGLHVLSHFQIFDLLALIPGGWCNQILWLQGHHQWYIVILFVFT”, for which the “transcriptional activation domain activity” value is 65800. On to “MRKNGSILSFRSFPPSPTFLPSFLLFFFSFPFFPVIFFQTPLLFLLLFFIYWG”, for which the “transcriptional activation domain activity” value worked out at 42000. On to “MRKTCRFICNVTRMRTVWIKALERVCARHGVFKPTFPLQRMSILDLEYASLGP”, for which the “transcriptional activation domain activity” value was determined as 52200. Regarding “MRKVLANVPGPGGTWGLGFISGVLLVNPKRLLGYLLRCWSTHHGKLARCLWPI”, the “transcriptional activation domain activity” value worked out at 47600.

With “MRLCFAKYHFPPPSTFFPPLLFSLLCPVAFYANYCPFFFFFLFLFPYSFFVQE”, the “transcriptional activation domain activity” value was found to be 63600.

Consider “MRLEVFCPLANATSHAYLIFCIMHCLYFIRHFFCCRSLSTFYSSRLLLLFHFI”, for which the “transcriptional activation domain activity” value was determined as 80900. Under “MRLFRECALFDTFMLYLNGDCMWVCLCLCFYLDFTVLGWFIIYGLVYCRVDDR” stands 56000; under “MRLFYSSFLLFSFLPFLPLLWFFNYLIAIVFPFFFFFFLSFVMGLISFRFLLF”, 40200.

As to “MRLGQLYSLFLFPSFLLSFFIMPLVSVTKYTPGVDNIYFFFFLFFFFFLFFFL”, the “transcriptional activation domain activity” value came to 36900.

Regarding “MRLHCFFLFVFFFSLFSFLLATLCHSPLPLPFVHVSFFPPSLLPLPIFALDPF”, the “transcriptional activation domain activity” value was determined as 33100. Then “MRLIYLPIIFCRLPSHGWTIWMPIIRALSLLVFSLIYLLFIGDLPALTLTIFF”, with 50900. Under “MRLLAYGLMSSGVLLAHVVHIWRQRGFFFATCIGLTNHNFGLLVIMNFCLFCS” stands 56000; under “MRLLYCFFHPGRIFDWFCWIHHVFLLVFGWLPLDWLYNLWGLGSLPWTLQNMP”, 47300.

For “MRLNICKDLWIHSAFRMLSDISAASLFLVSRSYFIIIFTVASLGYTRMLSLYH”, the “transcriptional activation domain activity” value worked out at 51900. Then “MRLRVFFFISSFMWLLLVSFYCSFFSFAFTLFFFRFPPFFFSLFRFTLLPSPS”, with 63700; and “MRLSRCCVFILLFFFDLVYYYPFLLLFNGFGGICIFLVLKRSHRETEFICFMQ”, with 60600. Then “MRLVYFCAGIYFLVADLVFSLFLFSFSSLLTLFFSPFFSLSLGLTLLEIQFTF”, with 51800; and “MRLYCKVVYCHLFVSYLLPLSLTAHLNHLSKGRSLAIFCLLVLILSSFLFSFS”, with 27000. Under “MRMLLYLLIHFIFMGVWTWLSWFSEVELLMVVLGLLETCFELTDMCGFCIFFV” stands 69500.

For the sequence “MRNDRGERKKEKRRREARERKKKERKGRREKGGKRKEEDEEKGRGGRGRRNGG”, the “transcriptional activation domain activity” value turned out to be 28600.

Take “MRNEYYFFTSLSCIFSVLCFVSSFFYLVFSSLVLFFFFFLTGLFYLKFFCWVF”: the “transcriptional activation domain activity” value was found to be 39400. In the case of “MRPLSWRLWRTGDSNRELLSHFLFYLGLFFFFREWLFLVLFFLFLLLLLPGVR”, the “transcriptional activation domain activity” value is 26600. For the sequence “MRQARGLHCRCPFGYRASLVLCLYLDVLFEGGFLYFYFFVPFFHATTFFFFLL”, the “transcriptional activation domain activity” value came to 37700. As for “MRQCCRCGDALKRCVILAVIAFGSVPPVYVGLVACARCRVWLFSPGLLYLKWF”, the “transcriptional activation domain activity” value was 55500. With “MRQRLGGQLFSKSFFYALLVTSTWSSKLVYLSPHFTSLPPLLILLYAPTFLLL”, the “transcriptional activation domain activity” value turned out to be 60600. As for “MRQVHIVFSGRDSGRESDIEVVSETSVFHDAAFVLGCVLVRGRSFAAPLLTAL”, the “transcriptional activation domain activity” value amounted to 32700. Under “MRRFSLFFSLSSLCLWLYVCWIGWIDGFLLVDVMVHLQHVYCVLTILIFLFSL” stands 22300; under “MRRLGWVGVSGLVSFLFTSFFFLVSFFLLLLLLLLTHFSFLFFFFAFTFILMM”, 45500.

As to “MRRLKFGFFPPHFAGFFLSVVLHIIIVYNLWVPFVLLFLLISFLSFLSCIQSF”, the “transcriptional activation domain activity” value was 54200.

“MRRLPTAMVSCFGVYAVSHNLSLPFVSSLFPCFIQFCARIILFSLVGYSFWSL”: the “transcriptional activation domain activity” value is 74500. For the sequence “MRRVARSTKGGKVRSLAALVVVGNGNGVGGFGEGRAVDSAQAVAKATAAATKN”, the “transcriptional activation domain activity” value stood at 32500. Take “MRRVTQQTGKGKIPSMYSLVVIGNGDGLVGYGEAKDDEPAAAREKATAKALRS”: the “transcriptional activation domain activity” value came out at 46400.

Regarding “MRSMKRTFFFFFLVFDLRYYSVLYYILYLYPFPFFLFLFIFYFPLFLFLSTAS”, the “transcriptional activation domain activity” value stood at 54500. Then “MRSSLPKLYRYGCLYWITGLCIFVYILYERRYYCCHNMPYFFHQPWFLCLSSL”, with 68800; and “MRSTGLESIKGLGTGYVGICGFIYLCISTYMHFLIPNIPNWIFFLLFLYPFLS”, with 59300. Turning to “MRTGSNFVLFAFFCLVLMFTLTFILVFVCCASVGGILYPFRFLLSFVWILVSL”, the “transcriptional activation domain activity” value was 28200. Under “MRTHVLSMHSALLLLHCLRAVWLAPVSRPRQCLTSPAFCSSTRLAIILGGVRH” stands 77900; under “MRTLHGLVYFFPFILYHRLVFLWLRVLALSRYVFLFSVCFPWSVLVTFVIFLY”, 80100; under “MRTLKLCSSCKHLGPEIYAFGWVCTNLSCQILFRHSGFHSLKGVTYSTSFLAQ”, 57400.

With “MRTLLMCHANRGIGFFWSGVFLWKVNILAGNGGYSSMCAYVNWLRLTWFSFVA”, the “transcriptional activation domain activity” value was found to be 40900.

Take “MRTPSTSPFDFCFFFAFSFLLLCWPVIPFILLFYILKFLWTYPFVFCVLYFIE”: the “transcriptional activation domain activity” value was 37600. Under “MRVCVTSLFFFPLSFFPILIKLFLLSHHLFPTSNPFSFVFSSFAPFLPAFSFI” stands 40900; under “MRVGVGGLLWLLCGSPFFFLHFISFVFLFFWSLLFFLFCRALHTPFSSYYNYH”, 72000. Under “MRWFFLLFWVFLSFFLSLQFFSILSFVCGSLACSISLLCRFSLRGAGFCWLGG” stands 47600; under “MRWNRIIIGSHVSVLWMIGYVFTLLLTLVPSPLLEFRYFILPFIFFCIHLPPP”, 48100; under “MRWTSTISFFLLPLGFFFSFHPFHIPFSTFLVSFEICIFFLSFFFSFLPIFLF”, 58500.
